± gives the half width of the 95% confidence interval.
Test: folding stability dG unfold from trypsin proteolysis; higher = more stable
Protocol: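 Folding stability of de novo designed mini-proteins (<80 aa, no Cys; designed by TrROS, TrMRF, ProteinMPNN and the joint model) was measured by cDNA display proteolysis with trypsin and chymotrypsin. Each protease was used at 11 concentrations in a threefold dilution series plus a no-protease condition. K50 was inferred by Bayesian fitting of sequencing counts, and dG unfold was derived against a sequence-predicted unfolded-state K50 (Tsuboyama et al. method). Sequences shown include variable-length N-terminal GS-type padding (SAGGSAGG...) inside a display construct carrying a PA tag. Rows were kept only if the AF2 dimer inter-PAE was >15, to exclude likely homo-oligomers.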

Sequence	folding stability dG unfold
SIEELAKKFPNVTVTVEKTEDGEVKITITVKTSEEQKKELQEKLKELAKKLAEELDLKVEIEIKVLPAPPSA [r9_1099_TrROS_Hall]	3.86 ± 0.26 kcal/mol
MPTIRVKIYRDGKLVRELELPAEEVEKMSEEELLEKVRELLEEEKGETYKVEVEIDGKKFTFEIKLPEKEES [r1_477_TrROS_Hall]	4.33 ± 0.39 kcal/mol
SAGGMLTPEEIERLARELEEAIRRGDRERAEELLEKLEELLKQAEEEGDEELVERLKKLLERAKKALESAGG [r13_137_TrROS_Hall]	4.85 ± 0.55 kcal/mol
SAGGSAGGSAGEIDKIKVEVEFEFPVRVKVGDKEYEFLVKVKYTIGPDGKIEVKSIELFPSAGGSAGGSAGG [r11_95_TrMRF]	3.69 ± 0.24 kcal/mol
SAGGSMKTYKLESEEEIEKLIKELSPEKYIVGVKGNPDGTPVVYIFPKSEPEKLKKLGVKEIIPVKSAGGSA [r2_351_JUSTAS]	-0.442 ± 0.46 kcal/mol
SAGMTVEVEIELPPGMTEEERLEEVKALVEELARALLPPGWKVTVKEIEVEEKDGKLVVKVKIEIEPEESAG [r5_146_TrROS_Hall]	3.96 ± 0.28 kcal/mol
SDTVHIPIDPNDPDEIKDLIKNLPPGWTVHIWWPDKNGEWPVVTIKVKPPPPPPIPPEDLPEEQRKEMKKSA [r9_1103_TrROS]	0.398 ± 0.24 kcal/mol
SAGGSAGGSAGGSFSVSVSYDPSTGNIVIRIDLPDGSTITITINPATGEISVSSSSSSSSAGGSAGGSAGGS [r10_127_TrMRF]	4.13 ± 0.28 kcal/mol
SAGGSAGGSAGGSPEVVPVDHPDRELLLVRFPDSVVLTDPSAPGASRTFPADTDVVVDASAGGSAGGSAGGS [r4_321_TrMRF]	-1.37 ± 0.41 kcal/mol
SAGGTPIGDGQTGESSTFDEEVTDPVTGEKVKVKVTIPVTIDPETGKTVRTVTITNPLEGKTTTTLTLSAGG [r13_262_JUSTAS]	-0.379 ± 0.13 kcal/mol
SAGGSAGGSAGPKPEYIRIKIEMWNPDGNPREHDFTFPPGHKDQIENLADNYGFRVSIEKSAGGSAGGSAGG [r11_603_TrROS]	0.278 ± 0.13 kcal/mol
SGPDVPLTPEEVAARIKAELLEKHPIGEVTPVELREFPELGVVEVRLRINVKGPPGETREIDVRLSRERLSA [r9_1002_JUSTAS]	0.694 ± 0.13 kcal/mol
SAGGSAGGSAGGDIEINVNANSPEEAKKFLGEFAQEGPAEIKIEVTPPPPPMPPNDPEYKSAGGSAGGSAGG [r7_261_TrROS]	-0.235 ± 0.096 kcal/mol
SAGGSAGGSAGGSMKVEPLPHPDRPVTVETTPDSITVTDPANPPATTTFSSSSTVSVDSSAGGSAGGSAGGS [r4_321_JUSTAS]	-0.122 ± 0.078 kcal/mol
SAGGSAGGSMVEIDPDNLVLTIVDPETGKAAVITAPPTADGTPVIKDVVVFDPDGNPHTFTVDSAGGSAGGS [r12_952_TrMRF]	0.666 ± 0.022 kcal/mol
SAGGSAGGSAGGGMTVVPTLEFFPGTRLVVRPVVVRDAEGRVVEVEPEVTPLPPPTLSLLSAGGSAGGSAGG [r7_135_JUSTAS]	-0.353 ± 0.17 kcal/mol
SAGGSALIVLEGDLDSVVALAKEAGDPNVKVEPVADFNDDPSEPRLYRITIERDGEPDGELLFLDPSAGGSA [r15_428_TrMRF]	-0.0896 ± 0.1 kcal/mol
SAGGSAGGIRIHRDNDKYVIHVPMDPNQPPENIKDILRDLPGLEDPEEIEYVPNPNGQAMIKIPSAGGSAGG [r6_516_TrROS]	-0.0828 ± 0.18 kcal/mol
SAGGSAGGSAGAAPDETTVTTTVTPSPGTTTVTTTTYTYAPPTNTVTSTTTTTTIPAGTASAGGSAGGSAGG [r11_237_JUSTAS]	0.659 ± 0.057 kcal/mol
SAGGGNMKTITVPASAVTSITRSPTNPNTLTITVSGSGATTTTTLPITPETKITEEGDTVTVTIPGLSAGGS [r16_22_JUSTAS]	0.312 ± 0.037 kcal/mol
SAGGSAGGSAGGSATVINIPASSLSEEEIEALAKALEEEDPSIKGPKIEKGDGTYTIVQSAGGSAGGSAGGS [r4_330_JUSTAS]	0.553 ± 0.046 kcal/mol
SAGGSAGGSAMPIPALVLVERPLPDGETEEREIPVIVEPDKIDEIIEEAEKEGYKVKEVKASAGGSAGGSAG [r3_453_TrMRF]	-0.271 ± 0.06 kcal/mol
SMPVTFTMKTPENRKKLEEAIKEIEEEYPIKVEEVEKDPKGTYTYKVEMDPEIIEKVKKKLEEAGNVTLESA [r9_472_JUSTAS]	-0.343 ± 0.23 kcal/mol
SAGGSAGGSAGGEILIFDDNGKRIIVIPIPPENRYRVVVIHENTGIPEVKEAKLEEVLSSAGGSAGGSAGGS [r10_482_TrMRF]	0.92 ± 0.055 kcal/mol

Sequence	folding stability dG unfold
SAMIKIEIVLPEEDLEKLLESEEVKELAKELEKKTGLKITSIKIEKKEVEVNGEKKKVVVITIEIEPEPSAG [r14_819_TrROS_Hall]	3.42 ± 0.24 kcal/mol
SAGGSAGGSAPAEFPIEILEVERNPGNPMVEVGIKIPGDGRYIKIHFPPNGKIDIELVPLPSAGGSAGGSAG [r3_294_TrROS]	0.265 ± 0.1 kcal/mol
SAGMKFKPGAKVEVYNKKTKKKIVLPVEELRKLAREKFGVETEEERLAEAIKEKAKENGFEIVKIEPVSAGG [r19_67_TrROS_Hall]	-0.166 ± 0.35 kcal/mol
SAGGSAGGSMPVEVKFTVEKDPSTDLLTVTVTRPGGEVTPITYPDPNNLEAAKAAAEALAKASSAGGSAGGS [r12_1012_JUSTAS]	0.365 ± 0.076 kcal/mol
SALINLKKEDVEKLVKALEKEGNYKVKIKPVKVVYKPKDGSKKPIGAVKIEVIDPDNPKSLLDKIKKAGSAG [r14_628_TrMRF]	-1.29 ± 0.62 kcal/mol
SAGGSAGGSAVKVIPFPFNEALDLLNSGEPKEIHVVGPPGWYMTVQFNPPDNNIEIDDPVPPSAGGSAGGSA [r18_400_TrROS]	0.732 ± 0.043 kcal/mol
SAGGSAGGSAGGMKPGEPVEIKIPVPGNGKKIPIEIPVGMPPEQARKFAKEIAEELEKNHSAGGSAGGSAGG [r7_957_TrROS]	-0.916 ± 0.2 kcal/mol
SAGGTKYTVSLRPPPTALPSREFTDSPLEIVEALPEDTTEATVTVDNNSTSTTVTFTTKEDLIAAVASSAGG [r13_299_JUSTAS]	0.00719 ± 0.14 kcal/mol
KVFSVDELRELAKKGKLKELLKKNKDVTIVVEEGSPEELKELKALPEVKEIKVVPKEDEEKIKKAKLVIKVS [r1_248_TrROS_Hall]	0.312 ± 0.17 kcal/mol
SAGGSANTIMIPFDDLTPDKILEAAEESPDPIMIHNPDNGRFLTVEVEDGGIDDVTWEPFDPEDFGSAGGSA [r15_751_TrROS]	0.499 ± 0.042 kcal/mol
SAGGYDKEGKPIRVVEINIPPDQPDTILKFAREEIDNNRWDIIHITSPNQVKWIKQAFPEKGIPIHIQSAGG [r13_353_TrROS]	0.311 ± 0.3 kcal/mol
SAGGSAPNEEITIPIRIRVENPEDGKPIHEIPIPIKVPKGQTQDQILDQAKNWMEEHGMKIKEIEISAGGSA [r15_195_TrROS]	-1.32 ± 0.86 kcal/mol
SAGGSAGGSAGKITIRNPENGYAIKIKFGDKEKTIPIDPDQIDEFLEKLPGIKVEPYPWKSAGGSAGGSAGG [r11_57_TrROS]	-0.574 ± 0.2 kcal/mol
SAGGSAGGSAGGSGMPQPTTVLTTEYYPPGVVVKKDIVYSPSGGAEEVEVSFYPSPELLSAGGSAGGSAGGS [r4_57_JUSTAS]	-1.08 ± 0.2 kcal/mol
SAGGSAGGSAGGGSSLVDPEGKPLPPRPEVVTTTGSYYSSLPGDGYYHLEEPVVEPVYPESAGGSAGGSAGG [r7_572_JUSTAS]	0.339 ± 0.051 kcal/mol
SAGGSAGGSAGGMTETLDFNGEKVVVTELPPTNTYQVTTTTPGTGVPTTTAARKEEVLTSAGGSAGGSAGGS [r10_482_JUSTAS]	0.443 ± 0.045 kcal/mol
SAGGSAGGSAKEVEVEVEEELPGGYYRATVRLPGEEKPLEVVVKGPREDALKAAEELAKEESAGGSAGGSAG [r3_104_TrMRF]	-0.0768 ± 0.16 kcal/mol
SAGGSAIKITKVEYEPNPDGWREIHFKATPGDPDFLDEIAEALPPDNIEPTEVDEKGYYEIRIPRPSAGGSA [r15_386_TrROS]	0.0955 ± 0.058 kcal/mol
SAGGSAGGMSTISVTVPPNVSVEEVKERLKKENPNSKYEILSVSKGPGTVKAKIAYDPLPEELLSAGGSAGG [r6_623_JUSTAS]	-0.782 ± 0.22 kcal/mol
SAGGSAGSMSIEEVVEKAKEEGIEVEVTSLPESGLTVVTITKKLPNGEVVESIILEHPEGTTTVLSSAGGSA [r15_1051_JUSTAS]	0.644 ± 0.057 kcal/mol
SAGGSAGGSAGGMPVVVINTPSEEEAEKEKAKLEEDPEYKDGPINFIYIPPGTLPENVPLSAGGSAGGSAGG [r7_976_JUSTAS]	0.286 ± 0.072 kcal/mol
SAGGSAGGMITIPINTPGLSPAEAAAIKAQLEADGYPAAEVTITASPVPPVPPLGPENIYSNRGSAGGSAGG [r6_246_JUSTAS]	-0.0678 ± 0.047 kcal/mol
SAGGGKIKKPKPIVIRVPKNSIKVGDDVPVAVLAKALGIDPSAKAKVGEVKPPENGDYELVVVEVESSAGGS [r16_165_TrMRF]	-0.508 ± 0.34 kcal/mol

— the supplement of paper PMC12764529
